Laboratory results from paper PMC3214759 (Biochemistry, 2011).
Where a chain is given by its changes, count along the chain named. Names and notes keep the numbering of the source.

B1: Rhizobium etli pyruvate carboxylase T882A mutant (enzyme)
chain: PISKILVANRSEIAIRVFRAANELGIKTVAIWAEEDKLALHRFKADESYQVGRGPHLARDLGPIESYLSIDEVIRVAKLSGADAIHPGYGLLSESPEFVDACNKAGIIFIGPKADTMRQLGNKVAARNLAISVGVPVVPATEPLPDDMAEVAKMAAAIGYPVMLKASWGGGGRGMRVIRSEADLAKEVTEAKREAMAAFGKDEVYLEKLVERARHVESQILGDTHGNVVHLFERDCSVQRRNQKVVERAPAPYLSEAQRQELAAYSLKIAGATNYIGAGTVEYLMDADTGKFYFIEVNPRIQVEHTVTEVVTGIDIVKAQIHILDGAAIGTPQSGVPNQEDIRLNGHALQCRVTTEDPEHNFIPDYGRITAYRSASGFGIRLDGGTSYSGAIITRYYDPLLVKVTAWAPNPLEAISRMDRALREFRIRGVATNLTFLEAIIGHPKFRDNSYTTRFIDTTPELFQQVKRQDRATKLLTYLADVTVNGHPEAKDRPKPLENAARPVVPYANGNGVKDGTKQLLDTLGPKKFGEWMRNEKRVLLTDTTMRDGHQSLLATRMRTYDIARIAGTYSHALPNLLSLECWGGATFDVSMRFLTEDPWERLALIREGAPNLLLQMLLRGANGVGYTNYPDNVVKYFVRQAAKGGIDLFRVFDCLNWVENMRVSMDAIAEENKLCEAAICYTGDILNSARPKYDLKYYTNLAVELEKAGAHIIAVKDMAGLLKPAAAKVLFKALREATGLPIHFHTHDTSGIAAATVLAAVEAGVDAVDAAMDALSGNTSQPCLGSIVEALSGSERDPGLDPAWIRRISFYWEAVRNQYAAFESDLKGPASEVYLHEMPGGQFTNLKEQARSLGLETRWHQVAQAYADANQMFGDIVKVAPSSKVVGDMALMMVSQDLTVADVVSPDREVSFPESVVSMLKGDLGQPPSGWPEALQKKALKGEKPYTVRPGSLLKEADLDAERKVIEKKLEREVSDFEFASYLMYPKVFTDFALASDTYGPVSVLPTPAYFYGLADGEELFADIEKGKTLVIVNQAVSATDSQGMVTVFFELNGQPRRIKVPDRAHGATGAAVRRKAEPGNAAHVGAPMPGVISRVFVSSGQAVNAGDVLVSIEAMKMETAIHAEKDGTIAEVLVKAGDQIDAKDLLAVYGG
modifications: biotin tethered to Lys1119
B2: wild-type Rhizobium etli pyruvate carboxylase (enzyme)
chain: B1 chain with A881T

How the values were obtained:
crystal structure = biological target: the molecule itself; assay: crystal structure
SEC = biological target: the molecule itself; assay: SEC

Protein	stoichiometry N (crystal structure)	stoichiometry N (SEC)
B1	4	
B2		4
